Data as given in doi:10.1101/2023.03.19.532587 (bioRxiv, 2023).

Molecular target: the molecule itself
Assay: SEC-MALS

B1: nCPEB4-NTD (N-terminal domain of neuronal CPEB4, with microexon 4) (domain or fragment, human)
chain: MGDYGFGVLVQSNTGNKSAFPVRFHPHLQPPHHHQNATPSPAAFINNNTAANGSSAGSAWLFPAPATHNIQDEILGSEKAKSQQQEQQDPLEKQQLSPSPGQEAGILPETEKAKSEENQGDNSSENGNGKEKIRIESPVLTGFDYQEATGLGTSTQPLTSSASSLTGFSNWSAAIAPSSSTIINEDASFFHQGGVPAASANNGALLFQNFPHHVSPGFGGSFSPQIGPLSQHHPHHPHFQHHHSQHQQQRRSPASPHPPPFTHRNAAFNQLPHLANNLNKPPSPWSSYQSPSPTPSSSWSPGGGGYGGWGGSQGRDHRRGLNGGITPLNSISPLKKNFASNHIQLQKYARPSSAFAPKSWMEDSLNRADNIFPFPDRPRTFDMHSLESSLIDIMRAENDTIKARTYGRRRGQSSLFPMEDGFLDDGRGDQPLHSGLGSPHCFSHQNGE
  stoichiometry N: ~350 molecules
